Experimental data: article PMC8177701 (Science Advances, 2021)

Target: T1, RsmA (E. coli, UniProt P06992 1-273)
T1 sequence (looked up): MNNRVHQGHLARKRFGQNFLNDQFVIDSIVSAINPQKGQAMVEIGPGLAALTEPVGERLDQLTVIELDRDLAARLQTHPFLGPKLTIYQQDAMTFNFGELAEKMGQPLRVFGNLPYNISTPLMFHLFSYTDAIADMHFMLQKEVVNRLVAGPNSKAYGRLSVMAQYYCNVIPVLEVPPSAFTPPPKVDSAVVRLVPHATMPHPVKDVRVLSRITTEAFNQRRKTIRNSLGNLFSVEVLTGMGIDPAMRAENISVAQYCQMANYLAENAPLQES
Assay: NMR titration

B1: RimP (natural protein)
chain: not shown
- Ka: < 10000 M⁻¹
